Data: the nanobody polyreactivity screen of Harvey et al. (2022)

Assay: yeast display, Sf9 membrane polyspecificity reagent, FACS + sequencing; frameworks hold sequencing errors
How it was run: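 Using colony PCR, genes from sorted yeast display clones were amplified, then sequenced on MiSeq at 2 × 250 and filtered by CDR length. The clones had been stained with 10% biotinylated, detergent-solubilized Sf9 membrane reagent for 1 hour at 4 °C and sorted by FACS into low and high (top ~1%) gates on anti-HA and streptavidin fluorescence. Polyreactivity labels come from the gate of origin.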

Row | Sequence | polyreactivity (PSR sort gate)
1 | QVQLVESGGGLFQAGGSLRLICAASGFIFGGSDMGWYRQAPGKERELVAAISRSGGSTYYADYVKGRFTISRDNAKNTVYLQMNSMKREDTAVYYCNSVPRRQGFNYLGQGTQVTVSS | high polyreactivity
2 | QVQLVESGGGLFQAGGSLRLRCAASGFIFGVNAMGWYRQAPGKERELVAAITSTGGRTYYADSVKGRFTISRDNAKNTVYLQMNSLKPVDTAVYFCARYQTGGYGYWGQGTQVTVSS | high polyreactivity
3 | QVQLVESGGGLFQAGGSLRLSCAASGFIFGQNAMGWYRQAPGKERELVAAIDWTGGRTYYADSVKGRFTISRDNAKNTVYLQMNSLKPEDTAVYYCAADGVWYADSPYSIHYGYWGQGTQVTVSS | low polyreactivity
4 | QVQLVESGGGLFQAGGSLRLSCAASGFTCSGYAMGWYRPAPGKERELVAGISASAGSTYADSVKGRFTISRDNAKNTVYLQMNSLKPEDTAVYYCAADLSFKAAIWFNEYGYWGQGTQVTVSS | low polyreactivity
5 | QVQLVESGGGLFQAGGSLRLSCAASGFTIEWYAMGWYRQAPGKERELVATITSSGDSTYYADSEKGRFTISRDNAKNTVYFQMYSLKPEDTAVYYCNVDNSVYDFSEYVYWGQVTQVTVSS | high polyreactivity
6 | QVQLVESGGGLFQAGGSLRLSCAASGFTSLWYGIGWYRPAPGKERELVAAITSDSSTYYADSVKGRFTISRDNAKNTVYLQMYSLKPQDTAVYSCAKYFVYVGYGRYAFWGQGTQVTVSS | low polyreactivity
7 | QVQLVESGGGLFQAGGSLRLSCAASGIIFPRYMGWYRQAPGKERELVAAIRWSSDDTNYADSVKGRFTISRDNAKNTVYLQMNSLKPEDTAVYYCAADSYYDRTIQFEFSARTYEYWGQGTQVTVSS | low polyreactivity
8 | QVQLVESGGGLFQAGGSLRLSCAASGIIFYVNDMGWYRQAPGKERELVADISGGTSTNYADSVKGRFTISRDNAKNTVYLQMNSLKPEDTAVYYCATAFIVQFPGSDYWGQGTQVTVSS | low polyreactivity
9 | QVQLVESGGGLFQAGGSLRLSCAASGRIFAYYTMGWYIQAPGKERELVAAITKRGGSTYYADSVKGRFTISRDNAKNTFYLQMNSLKPEDTAVYYCAADPNRYRYRSPHDYWGQGTQVTVSS | high polyreactivity
10 | QVQLVESGGGLFQAGGSLRLSCAASGRIFGNNTMGWYRQAPGKERELVAAINSGGRTYYADSVKGRFTISRDNAKYTVYLQMNSLKTEDTAVYYCATTTYKRFYRAPTSKYDYWGQGTLVTVSS | high polyreactivity
11 | QVQLVESGGGLFQAGGSLRLSCAASGRILDYYAMGWYRQAPGKERELVAAIRRRGVITYADSVKGRFTISRDNAKNTVYLLMKSLKPEDTAVYYCAAGGYEYGYWGQGTQVTVSS | low polyreactivity
12 | QVQLVESGGGLFQAGGSLRLSCAASGRTFQNAMGWYRQAPGKERELVAAISVRGTRTYYADSVKGRFTISRDNAKNTVYLQMNSLKPEDTAVYYCAADRGKATSADDYWGQGTQVTVSW | high polyreactivity
13 | QVQLVESGGGLFQAGGSLRLSCAASGRTFYPNAMGWYRQAPGKERELVAAISWSVGTTHYADSVKGRFTISRDNAKNSVYLQMLSLKPEDTAVYYCNARWYYGVYDYWGQGTQVTVSS | low polyreactivity
14 | QVQLVESGGGLFQAGGSLRLSCAASGSIFGYYAMGWYIQAPGKERELVARISYSGGTTYYADSVKGRFTISRDNAKNTVYLQMNSLKPEDTAVYYCNARIPYSWRYGYWGQGTQVTVSS | high polyreactivity
15 | QVQLVESGGGLFQAGGSLRLSCAASGSIFTRYAMGWYRQAPGKERELVAAISNRGGRTYYADSVKGRFTISRDNAKNTVYLQMNILKPEDTAVYYCNAATTRRIPQSDNYWGQGTQVTVSS | high polyreactivity
16 | QVQLVESGGGLFQAGGSLRLSCAASGSIFVRNAMGWYRKATGKERELVAGISATGGSTYYADSVKGRFTISRDNAKITVYFQMKSLKPEDTAVYYCAKKVSTRFARYRYDYWGQVTQVTVSS | high polyreactivity
